Experimental data taken from PMC11505469.

Legend:
[1] = biological target: CD3εδ; test: SPR
[2] = biological target: Human FcRn; test: SPR

Kd [1]: 41 nM
Kd [2]: 240 nM
Substance: ISB 2001 (from UniProt P01857)
